This series is described as follows: yeast display, Sf9 membrane polyspecificity reagent, FACS + sequencing; frameworks hold sequencing errors. The essentials:
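Polyreactivity labels are assigned by the sorting gate from which each nanobody was recovered. The gates were low and high (top ~1%), set on anti-HA fluorescence for expression and streptavidin fluorescence for reagent binding. Before sorting, galactose-induced (36–48 hours) yeast display cells were stained for 1 hour at 4 °C with 10% biotinylated, detergent-solubilized Sf9 membrane reagent.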
For the sequence “QVQLVESGGGLVQAGGSLRLSCAASGRTFFINAMGWYRPAPGKERELVAAIRVGAGSTYYADSVKGRVTISRDNAKYTVYLQMNSLKPEDTAVYYCAKRTATSTRKYDYWGQGTQVTVSS”, the “polyreactivity (PSR sort gate)” value is recorded as “high polyreactivity”.

Regarding “QVHLQESGGGLVQAGGSLRLSCAASGNNSPVGVLGRYRQAPGKERELVATINFGGSSYYADSVKGRFTISRDNAKNTVYLQMNSLKREDTAVYYFAYCGQGTQVTVSS”, the “polyreactivity (PSR sort gate)” value was “low polyreactivity”.

Consider “QVQLVESGGGLVQAGGSLRLSCAASGIIFYSYTMGWYRQAPGKERELVAAISRNGGGTYYADSEKGRFTISRDNAKNTVYLQMNSLNPEETAVYYCAAEVDQWYYRGYDYWGQGTQVTVSS”, for which the “polyreactivity (PSR sort gate)” value is on record as “high polyreactivity”.

As for “QVQLVESGGGLVQAGGSLRLSCAASGSTFFVNAMGWYRQAPGKERELVASITVSSGRTYYADSVKGRFTISRDNAKNTVYLQMNSLKPEDTAVYYCAARHLYWRREGYYWGQGYQVTVSS”, the “polyreactivity (PSR sort gate)” value is “high polyreactivity”.

On to “QVHLVESGGGLVQAGGSLRLSCAASGSIFFVYAMGWYRQAPGKERELVAAISNDGSTNYADSVKGRFTISRDNAKNTVYLQMNSLKPEDTAVYYCAADPSLRQYAYFDYDYWGQGTQVTVSS”, for which the “polyreactivity (PSR sort gate)” value is “low polyreactivity”.

Regarding “QVQLVESGGGLVQAGGSLRLSCDASGSIFYDNAKGWYRQAPGKERELVATIRGGGNTYYADSVKGRFTISRDNAKNTVYLQMNSLKPEDTAVNYCAKQSDFPVVPLVYGVYGYDYWGQGTQVTVSS”, the “polyreactivity (PSR sort gate)” value is “low polyreactivity”.

“QVQLVESGGGLVQAGGSLRLSCAASGSTFFEYTMGWYRRAPGKEREFVADIRGRDGSTSYADSVKGRFTISRDNAKNTVYLQMNSLKPEDTAVYYCATEYFPQYQSTGWYDYWGQGTQVTVSS”: the “polyreactivity (PSR sort gate)” value was “low polyreactivity”.

On to “QVQLVESGGGLVQAGGSLRLSCAASVNTFWYYTMGWYRQAPGKERELVAAITGGGRTYYADSVKGRFTISRDNAKNSVYLQMNSLKPEDTAVYYCAKPWGSDFGSWGQGTQVTVSS”, for which the “polyreactivity (PSR sort gate)” value is “low polyreactivity”.

For the sequence “QVQLVESGGGLVQAGGTIRISSAPSGRTLGCNAMGRSRQAPGKEWELVSAISYSGGDTTYADSVKGRFTISRDKAKNTVYLQMNSLKPEDTAVYYCAARGDYYVYAYNRRFVYLGQGTQVTVSS”, the “polyreactivity (PSR sort gate)” value is “low polyreactivity”.

As for “QVQLVESGGGLVQAGGSLRLSCAASGITFGDYAMGWSRQAPGKERELVAGINWSGDGTYYADSVKGRFTISRDNAKNTVYLQMNSLKPEDTAVYYCAAETFYDYGGYDYWGQGTQVTVSS”, the “polyreactivity (PSR sort gate)” value is recorded as “low polyreactivity”.

Consider “QVHLVESGGGLVQAGGSLRLSCAATGRTLTCNARGWYRQAPGKERELVPAISRSGGGSTYYADSVKGRFTISRDTAKNTVYIQMISLKPEDTAVYYCAARYRVHYYWYPMGYWGQGTQVTVSS”, for which the “polyreactivity (PSR sort gate)” value is reported as “high polyreactivity”.

With “QVQLVESGGGLVQAGGSLRLSCAASGINFCWYAMGWYRQAPGKERELVAAISGTGGSTYYADSVKGRFTISRDNAKNTVYLQMNSLKPEDTAVYYCAARGKSSSYYDYDYCGQGTQVTVSS”, the “polyreactivity (PSR sort gate)” value was “low polyreactivity”.

As to “QVQLQESGGGLVQAGGSLRLSCEASGSIYYPRTMGRSRQAPGKELEFVAGSGVGGTTYYADSVKGRFTISRDNAKNTVYLQMNSLIPEDDAVYYCAVAAYYDKYYVYWGQGTQVTVSC”, the “polyreactivity (PSR sort gate)” value is “low polyreactivity”.

Take “QVQLVESGGGLVQAGGSLRLSCAVSGGILYEYAMGSDREAPGKERELVAAITTSGSTYYADSVKGRFTISRDNAKNTVDLLMNSLKPEDTAVYYCAADSDYFYYDLDYWGQGTQVTVSS”: the “polyreactivity (PSR sort gate)” value is recorded as “low polyreactivity”.

In the case of “QVQLVESGGGLVQAGGSLRISCADSGITYSANAMGWYRQAPGKERELVAAITGSGGGTYYADSVKGRFTISRDNAKNTVYLQMNSLKPEDTAVYYCKADNYYYSGFDYWGQGTQVTVSS”, the “polyreactivity (PSR sort gate)” value was “low polyreactivity”.

Turning to “QVQLEESVGGLVQAGGSLRLSCAASGRIFAAYAMGWYRQEPGKERELVAAITGSGGRTYYADSVKGRFTISRDNAKNTVYLQMNSLKPEDTAVYYCAAESTPYSSVDRVAVYYWGQGTQVTVSS”, the “polyreactivity (PSR sort gate)” value was “high polyreactivity”.

With “QGQLVESGGGLGQEGCSLRLSCAASGNTFIINAMGWYRQARGNERELVAAITSGGSTNYADSVKGRFTISGDNAKNTVYLQMNSLKPEDTAVYDCAARTRLYYYKVRKYRMDYWGQGTQVTVSS”, the “polyreactivity (PSR sort gate)” value is recorded as “low polyreactivity”.

In the case of “QVQLVESGGGLVQARGSLRLSCAASGRTSPYYAMGWYRQAPGKEREWVAAISDGGSTNYADSVKGRFTISRDNAKNTVYLQMNSLKPEDTAVYYCAAYWHCFGWLRGGYWGQGTQVTVSS”, the “polyreactivity (PSR sort gate)” value is “high polyreactivity”.

With “QVQLVESGGGLVQAGGSLRLSCAASGSTFRTYAMGWYRQAPGKERDLVASIDSTGSTNYADSVKGRFTISRDNAKNTVYLQMNSLKPEDTAVYYCAAETYSDPPFYAYDYWGQGTQVTVSS”, the “polyreactivity (PSR sort gate)” value was “low polyreactivity”.

Turning to “QVQLVESGGGLVQAGGSLRLSCAASGSILAAYAKGWYRQAPGKERELVAAISLDDGSTYYADSVKGRFTISRDNAKNTVYFQMNSLKPVDTAVYYCAADYYVRSQLLYATSGNYWGQGTQVTVTS”, the “polyreactivity (PSR sort gate)” value was “high polyreactivity”.

For the sequence “QVQLVESGGGLVQAGGSLRLSCAASGSILYPYAMGWYRQAPGKERELVAAISRGGSTNYADSVKGRFTISRDNAKDTVYLQMNSLKPEDTAVYYCATAYTRFSQRYEYYVIYWQNDYWGQGTQVTVSS”, the “polyreactivity (PSR sort gate)” value is “low polyreactivity”.

“QVQLVESGGGLVQAGGSLRLSCAASGSILYLNARGWYRQAPGKERELVAGISRRGGRTTYADSVKGRFTISRDNAKNTVYLQMNSLKPEDTAVSYCAVSTAYGYGYWGQGTQVTVSS”: the “polyreactivity (PSR sort gate)” value was “high polyreactivity”.

On to “QVQLVESGGGLVQAGASLRLSCAASGITLDLYDMGWYRQAPGKERELVAAISRSGVRTYYADSVKWRFTISRDNAKNTVYFQMNSLKPEDTSVYYCNKGYARRYASGYDYWGQGTQVSVSS”, for which the “polyreactivity (PSR sort gate)” value is “high polyreactivity”.

Turning to “QVQHGESGGGLVQAGGSLRLTCAASGSIFKYNAMGWYRQAPGKERELDAAISLSGASRSYADSVKGRFTISRVNAKNTVYLQMNSLKPEDTAVYYCNAYYWYYSTRKYYYWGQGTQETVSS”, the “polyreactivity (PSR sort gate)” value is “high polyreactivity”.

In the case of “QVQLVESGGGLDQAGGSLRLICAASGITFFPYAMVWYRQAPGKEKELVAAISSGSSTYYADSVKGRFTISRDNAKNTVYLQMNSLKPEDTAVYYCATRRDLHDRYEYDYWGQGTQVTVSS”, the “polyreactivity (PSR sort gate)” value was “low polyreactivity”.

In the case of “QVQLVESGGGLVQAGGSLRLSRAASGRSYVYAMGWYRQAPGTETEVVAAISTISSSTYYADSVKGRFTISRDNAKNTVYLQMNSLKPEDTAVYYCAADYSQYYYYGWIDSDYWGQGTQVTVSS”, the “polyreactivity (PSR sort gate)” value is reported as “high polyreactivity”.

Regarding “QVQLVESGGGLVQAGGSLRLSCAASGSIFGWYAMGWYRQAPGKERELVAAISGSGGSTYYADSVKGRFTISRDTAKNTVYLQMNSLKPEDTAVYYCNAYRRVGTSEYWGQGTQVTVSS”, the “polyreactivity (PSR sort gate)” value was “high polyreactivity”.

As for “QVQLVESGGGLVQAGGSLRLSCAASGRIFYSYAMAWYRQAPGKERELVAAISSRTGSTYYADSVKGRFTISRDNAKITVYLQMNSLIPEDTAVYYCAARKKYRFDYWGQGTQVTVSS”, the “polyreactivity (PSR sort gate)” value was “high polyreactivity”.

With “QVQHVESGGGLVQAGGSLRLSCAASESILNRYVMGWYRQATGKERELVCTYYADSVKVRFTISRDNAKNTVYLQMNSLKPEDTAVYYCAADVYLYYAGSRYYYWGQGTQVTVSS”, the “polyreactivity (PSR sort gate)” value is on record as “low polyreactivity”.

Consider “QVQLGESGGGLVQAGGSLRLICAASGRTIRQYAMGRYRQAPGKERELVAAIDSGGSTYYADSVKGRFTISRDNAKNTVYLQMNSLKPEYTAVYYCAKGPSWKYYSYTLDYWGQGTQVTVSS”, for which the “polyreactivity (PSR sort gate)” value is listed as “low polyreactivity”.

The record behind these values is the nanobody polyreactivity screen of Harvey et al. (2022).
